Experimental data reported in patent US20230051715A1 (MABWELL THERAPEUTICS, published 2023).
Changes are numbered by the printed parent chain. In names and notes the source's numbering stands. Blank lines part the entries; values can stand above or below the binder they belong to.

How the values were obtained:
[1] = target: T1, human C1s mutant M19 (Q303K) (human, UniProt P09871 16-688); assay: ELISA, plate coated with human C1s mutant M19: Q303K, OD450nm
T1 construct: The entry is the mutant itself
T1 sequence: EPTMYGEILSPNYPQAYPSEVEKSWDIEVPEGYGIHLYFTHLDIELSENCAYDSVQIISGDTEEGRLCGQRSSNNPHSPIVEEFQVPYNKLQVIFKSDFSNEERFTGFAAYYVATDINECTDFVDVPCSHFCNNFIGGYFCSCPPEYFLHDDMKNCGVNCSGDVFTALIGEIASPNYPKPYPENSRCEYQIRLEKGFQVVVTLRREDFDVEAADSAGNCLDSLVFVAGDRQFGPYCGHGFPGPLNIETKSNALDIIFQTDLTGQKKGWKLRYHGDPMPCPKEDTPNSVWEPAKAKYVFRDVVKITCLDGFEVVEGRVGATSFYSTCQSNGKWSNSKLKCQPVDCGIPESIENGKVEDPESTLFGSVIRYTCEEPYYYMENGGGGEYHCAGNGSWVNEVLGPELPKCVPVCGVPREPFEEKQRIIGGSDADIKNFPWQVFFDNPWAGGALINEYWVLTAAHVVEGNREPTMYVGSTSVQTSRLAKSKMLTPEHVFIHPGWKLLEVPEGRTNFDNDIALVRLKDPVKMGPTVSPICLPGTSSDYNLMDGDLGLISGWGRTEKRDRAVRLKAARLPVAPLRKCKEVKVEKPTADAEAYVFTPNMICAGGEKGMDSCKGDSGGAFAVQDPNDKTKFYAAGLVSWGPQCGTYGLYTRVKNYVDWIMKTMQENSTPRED
Description: ELISA was carried out by first coating 96-well plates with 200 ng/well of full-length or truncated C1s proteins overnight. The next morning, plates were blocked with SuperBlock T20 blocking buffer (Thermo Scientific 37536) for 1 h with gentle shaking. Then, various concentrations of anti-C1s antibodies diluted in SuperBlock T20 blocking buffer were added to the plates and incubated for 1 h with gentle shaking. Mouse IgG (Sigma-Aldrich 15381) and human IgG1 (BioXCell BP0297) were used as negative controls. The plates were washed before incubating with HRP conjugated secondary antibodies diluted in SuperBlock T20 blocking buffer (goat anti-mouse IgG (H+L) cross-adsorbed secondary antibody HRP (Invitrogen G-21040) or goat anti-human IgG antibody, HRP conjugate (Millipore AP309P)) for 1 h with gentle shaking. At last, the plates were washed and color developed with ELISA liquid HRP substrate (Sigma-Aldrich), followed by stopping the reaction with addition of 1M H₂SO₄ in the same volume as the ELISA liquid substrate. Bound antibody was measured by absorbance at OD₄₅₀ₙₘ.
Binding of anti-C1s antibodies to mutants M1-M20 of human C1s was measured by ELISA as described in Example 4, and results are shown in FIGS. 6B-6U. All anti-C1s humanized variants including hz2-7(H1L2), hz2-8(H1L2 G80A) and hz2-8(H1L2 G80A/T82A) maintained strong binding properties to the majority (16 out of 20) of C1s mutants including M1 (FIG. 6B), M2 (FIG. 6C), M3 (FIG. 6D). M4 (FIG. 6E), M7 (FIG. 6H), M8 (FIG. 6I), M10 (FIG. 6K), M11 (FIG. 6L), M12 (FIG. 6M), M13 (FIG. 6N), M15 (FIG. 6P), M16 (FIG. 6Q), M17 (FIG. 6R), M18 (FIG. 6S), M19 (FIG. 6T) and M20 (FIG. 6U).

[2] = target: T2, rat C1s (produced in house) (rat, UniProt Q6P6T1 16-688); assay: ELISA, plate coated with 200 ng/well RatC1s, OD450nm
T2 construct: also called RaC1s
T2 sequence: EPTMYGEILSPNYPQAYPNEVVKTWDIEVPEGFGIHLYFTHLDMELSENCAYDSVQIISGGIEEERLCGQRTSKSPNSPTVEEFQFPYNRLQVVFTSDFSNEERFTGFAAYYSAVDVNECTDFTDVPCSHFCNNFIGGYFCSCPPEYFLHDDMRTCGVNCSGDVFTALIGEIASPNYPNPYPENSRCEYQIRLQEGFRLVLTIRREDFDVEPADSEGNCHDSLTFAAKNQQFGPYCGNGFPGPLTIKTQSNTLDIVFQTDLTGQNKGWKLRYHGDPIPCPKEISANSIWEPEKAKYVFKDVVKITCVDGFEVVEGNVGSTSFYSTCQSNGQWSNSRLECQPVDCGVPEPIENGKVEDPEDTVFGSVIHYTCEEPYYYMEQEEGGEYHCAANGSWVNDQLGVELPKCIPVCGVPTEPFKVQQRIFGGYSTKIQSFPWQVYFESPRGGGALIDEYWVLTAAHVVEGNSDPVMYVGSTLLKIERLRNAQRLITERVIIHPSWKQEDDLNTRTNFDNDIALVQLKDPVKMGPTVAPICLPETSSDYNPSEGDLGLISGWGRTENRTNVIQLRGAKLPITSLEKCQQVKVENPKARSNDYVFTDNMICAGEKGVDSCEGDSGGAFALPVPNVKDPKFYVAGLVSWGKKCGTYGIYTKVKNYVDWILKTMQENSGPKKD
Description: The next morning, plates were blocked with SuperBlock T20 blocking buffer (Thermo Scientific 37536) for 1 h with gentle shaking. Then, various concentrations of anti-C1s antibodies diluted in SuperBlock T20 blocking buffer were added to the plates and incubated for 1 h with gentle shaking. Mouse IgG (Sigma-Aldrich I5381) and Human IgG1 (BioXCell BP0297) were used as negative controls. The plates were washed before incubating with HRP conjugated secondary antibodies diluted in SuperBlock T20 blocking buffer (goat anti-mouse IgG (H+L) cross-adsorbed secondary antibody HRP (Invitrogen G-21040) or goat anti-human IgG antibody, HRP conjugate (Millipore AP309P)) for 1 h with gentle shaking. At last, the plates were washed and color developed with ELISA liquid substrate (Sigma-Aldrich), followed by stopping the reaction with addition of the same volume of […] 1M H₂SO₄. Bound antibody was measured by absorbance at OD₄₅₀ₙₘ.

[3] = target: T3, human C1s deletion mutant 1 (M151) (human) (UniProt P09871); assay: ELISA, plate coated with 200 ng/well HuC1s(M151), OD450nm
T3 sequence: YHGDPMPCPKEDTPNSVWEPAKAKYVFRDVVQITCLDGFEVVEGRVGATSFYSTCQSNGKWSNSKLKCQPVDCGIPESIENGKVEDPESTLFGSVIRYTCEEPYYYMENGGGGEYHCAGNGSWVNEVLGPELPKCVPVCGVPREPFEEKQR

EC50 [1]: 0.001 µg/mL
B1: Anti-C1s antibody hz2-8 (H1L2 G80A) (antibody, V domains shown)
VH: QVQLVQSGAEVKKPGASVKVSCKASGFNIKEYYMHWVRQAPEQGLEWMGWIDPENADTIYAQKFQGRVTITADTSTNTAYMELSSLRSEDTAVYYCARSRLFFAYWGQGTLVTVSS
VL: DIQMTQSPKSLSASVGDRVTITCRASQDVRTALDWYQQKPGQSPKLLIYSASYRYSGVPSRFSGSGSGTDFTLTISSLQPEDFATYYCQQQYTTPYTFGQGTKLEIKR
notes: Humanized variant with G80A in HC CDR2 (already in the entry), human IgG1 / kappa

EC50 [2]: 0.105 µg/mL | EC50 [1]: 0.001 µg/mL
B2: Anti-C1s antibody hz2-8 (H1L2 G80A/T82A) (antibody, V domains shown)
VH: B1 VH with T58A
VL: B1 VL
notes: Humanized variant with G80A and T82A in HC CDR2 (already in the entry), human IgG1 / kappa

binding result [2]: no binding (tested: 1000 ng/ml (Log 3)) | EC50 [3]: 0.013 µg/mL
B3: Anti-C1s antibody 2-7 (antibody, human IgG1, kappa, V domains shown)
VH: EVKLEESGGGLVPPGGSMKLSCVASGFTFSNYFMNWVRQSPEKGLEWVAEIRLKFTNYATHYAESVEGRFTISRDDSKSSVYLQMNNLRAEDTGIYYCTRDYGSRNGYFDYWGQGTTLTVSS
VL: DIVMTQAAPSVPVTPGESVSISCRSSKSLLHSNGNTFLYWFLQRPGQSPQLLIYRMSNLASGVPDRFSGSGSGTAFTLRVSRVEAEDVGIYYCMQHLEYPYTFGGGTKLEIKT
notes: the HC/LC entries may hold it too; also called clone 2-7

EC50 [2]: 0.063 µg/mL | EC50 [3]: 0.018 µg/mL
B4: Anti-C1s antibody 2-8 (antibody, V domains shown)
VH: EVQLQQSGAELVRPGALVKLSCKASGFNIKEYYMHWVKQRPEQGLEWIGWIDPENGDTIYDPKFQGKASITADTSSNTAYLQLSSLTSEDTAVYYCARSRLFFAYWGQGTLVTVSA
VL: DIVMTQSHKFMSTSVGDRVSFTCKASQDVRTAVDWYQQKPGQSPKLLIYSASYRYTGVPDRFTGTGSGTDFTFTISSVQAEDLAVYFCQQQYTTPYTFGGGTKLEIKT
notes: the HC/LC entries may hold it too; also called clone 2-8

binding result [2]: no binding (tested: 1000 ng/ml (Log 3)) | EC50 [1]: 0.002 µg/mL | EC50 [3]: 0.008 µg/mL
B5: Anti-C1s antibody hz2-7(H1L2) (antibody, V domains shown)
VH: EVQLLESGGGLVQPGGSLRLSCAASGFTFSNYFMNWVRQAPGKGLEWVSEIRLKFTNYATHYADSVKGRFTISRDDSKSTLYLQMNSLRAEDTAVYYCTRDYGSRNGYFDYWGQGTLVTVSS
VL: DIVMTQTPLSLPVTPGEPASISCRSSKSLLHSNGNTFLYWFLQKPGQSPQLLIYRMSNLASGVPDRFSGSGSGTDFTLKISRVEAEDVGVYYCMQHLEYPYTFGGGTKLEIKR
notes: Humanized, human IgG1 / kappa; also called hz2-7(1L2)
